Results: patent US11015206B2, “Compositions and methods comprising sequences having hydroxyphenylpyruvate dioxygenase (HPPD) activity” (PIONEER HI-BRED INTERNATIONAL, INC., priority 2014, dated 2021)

How the values were obtained:
Assay type in all cases: biochemical, Z. mays
[1] = tested on: 4-hydroxyphenylpyruvate dioxygenase (HPPD); assay: HPPD activity coupled assay with HGD; substrate saturation kinetic parameters (kcat, KM); details: Table 6; for kcat: single substitutions in SEQ ID NO:2
Method: Wild type and shuffled variant genes were cloned into pVER7062, a modified version of pET24a(+)(Novagen), which places six histidine residues at the N-terminus of the expressed protein. Vectors were electroporated into E. coli host strain BL21(DE3). Cells were grown at 30 C in rich medium such as 2×YT containing the selection antibiotic, kanamycin. At a density of about 0.6 OD600, IPTG was added to 0.2 mM, the temperature was reduced to 16 C and growth continued for another 24 hrs. Cells were harvested by centrifugation and stored at −80 C. Cell pellets were lysed in BPER (Pierce) protein extraction reagent containing 0.2 mg/ml lysozyme, 1 mM dithiothreitol, protease inhibitor cocktail (Sigma, bacterial cocktail) and endonuclease. Insoluble cellular debris was removed by centrifugation. HPPD protein was purified from the soluble protein solution by affinity chromatography on the nickel form of nitrilotriacetic acid (Ni-NTA) resin (Qiagen). Protein concentrations were determined by the Bradford method, as supplied by Bio-Rad.
HPPD catalyzes the conversion of 4-hydroxyphenylpyruvate (HPP) to homogentisate (FIG. 17). […] However, the product of the ensuing reaction in tyrosine metabolism, maleylacetoacetate, absorbs strongly at 320 nm. Furthermore, the enzyme catalyzing that reaction is also a dioxygenase having similar mechanism and buffer requirements as HPPD, making homogentisate dioxygenase (HGD) an ideal partner in a coupled assay, as shown.
The HDG gene from Pseudomonas aeruginosa (Amaya (2004) Arch Biochem Biophys 421, 135-142) was cloned into pVER7062 and electroporated into E. coli strain BL21(DE3). The enzyme was produced by methods similar to those described for HPPD. The purified enzyme has a KM for homogentisate of 23 μM and a kcat of 100/sec, properties highly suited for instantly converting the homogentisate produced by HPPD to maleylacetoacetate.
HPPD activity was measured by placing an aliquot (e.g., 6 μl) of the substrate HPP at 50-fold the desired final concentration into the wells of a low UV-absorbing assay plate. Reactions were started by adding a mixture (e.g., 294 μl) containing 25 mM Hepes, pH 7, 2 mM ascorbate, 10 μM FeSO4, 1 to 100 μM HPP, 50 nM HGD and 5 to 240 nM HPPD. Absorbance at 320 nm was monitored continuously in a plate-reading spectrophotometer (Spectramax, Molecular Devices).
The catalytic performance of wild-type HPPD and variants generated by shuffling was assessed by determining the substrate saturation kinetic parameters. The Michaelis-Menten kinetics protocol of the Spectramax software was customized for HPP concentrations ranging from 3.33 μM to 100 μM. Reaction rates were measured as described above for each concentration of HPP. The software returns values of KM and Vmax using the Lineweaver-Burke transformation of the Michaelis-Menten equation.

[2] = tested on: 4-hydroxyphenylpyruvate dioxygenase (HPPD); assay: Estimate of kcat from initial rate at saturating hydroxyphenylpyruvate without inhibitor (ON rate ratio assay); details: Table 5; single substitutions in Round 7 variant 9070 (SEQ ID NO:2); estimate from initial rate at saturating hydroxyphenylpyruvate without inhibitor
Procedure, shortened: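 kcat was estimated from the initial reaction rate with known enzyme level (60 or 120 nM HPPD). Hydroxyphenylpyruvate was at a saturating 100 μM, with no inhibitor present.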

[3] = tested on: 4-hydroxyphenylpyruvate dioxygenase (HPPD); assay: ON rate ratio: HPPD reaction rate with vs without inhibitor in the 70 to 90 second interval; details: Table 5; tembotrione
Procedure, shortened: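 Indicator of inhibitor on-rate: reaction velocity in the 70 to 90 second window with 4 μM inhibitor divided by that without. Reactions contained 100 μM HPP and 60 or 120 nM HPPD; slower binding gives a larger ratio.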

[4] = tested on: 4-hydroxyphenylpyruvate dioxygenase (HPPD); assay: OFF rate ratio: release of inhibitor from pre-formed enzyme-inhibitor complex; details: Table 5; tembotrione
Procedure, shortened: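 Inhibitor release from pre-formed complex (enzyme 7.2 μM, inhibitor 8 μM, 1 h RT) tracked as accelerating HPPD activity at 320 nm over 12 min, coupled via 50 nM HGD with 100 μM HPP at pH 7. OFF rate ratio: steady-state velocity relative to uninhibited initial velocity.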

[5] = tested on: 4-hydroxyphenylpyruvate dioxygenase (HPPD); assay: Insensitivity parameter (ON × OFF) and trait fitness (ON × OFF × kcat/KM or × kcat); details: for ON × OFF × kcat, Value / ON × OFF × kcat, Fold vs wt / ON × OFF, fold vs wt / ON × OFF (parameters with tembotrione): Table 5, tembotrione; for ON × OFF × kcat, Fold vs wt / ON × OFF, fold vs wt: fold vs maize wild type HPPD; for ON × OFF (parameters with tembotrione): insensitivity parameter
Procedure, shortened: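 Trait fitness combines catalysis and insensitivity as kcat/KM × ON rate ratio × OFF rate ratio. The insensitivity parameter is the product of ON and OFF rate ratios, used in place of KD because the ON rate ratio is inverse.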

[6] = DKN (diketonitrile form of isoxaflutole)
[7] = DKN (isoxaflutole diketonitrile)

ON ratio (parameters with tembotrione) [3]	OFF ratio (parameters with tembotrione) [4]	Insensitivity parameter, ON × OFF [5, 6]	Insensitivity parameter, ON × OFF ([5]; Mesotrione, Table 6)	Insensitivity parameter, ON × OFF ([5]; Sulcotrione)	ON × OFF, fold vs wt [5]	ON × OFF (parameters with tembotrione) [5]	Insensitivity parameter, ON × OFF ([5]; Tembotrione)	Insensitivity parameter, ON × OFF ([5]; Topramezon)	Molecule	Km [1]	kcat [1]	kcat [2]	ON × OFF × kcat/km fold vs Round 7, variant 9070 [5, 7]	ON × OFF × kcat/km fold vs Round 7, variant 9070 ([5]; Sulco (sulcotrione))	ON × OFF × kcat, Value [5]	ON × OFF × kcat, Fold vs wt [5]	ON × OFF × kcat/km fold vs Round 7, variant 9070 ([5]; Topra (topramezone))	ON × OFF × kcat/km fold vs Round 7, variant 9070 ([5]; meso (mesotrione))	ON × OFF × kcat/km fold vs Round 7, variant 9070 ([5]; tembo (tembotrione))
0.75	0.19	0.26	0.46	0.56	27.0	0.14	0.15	0.21	387L: single substitution I387L in SEQ ID NO:2 (protein, Zea mays variant form created by artificial means.) MGPTPTATAAGAAVAAASAAEQAAFRLVGHRNFVRFNPRSDRFQTLAFHHVELWCADAASAAGRFSFALGVPLAARSDLSTGNSAHASLLLRSGSLSLLFTAPYAHGADAATAALPSFSAAAARRFAADHGLAVRAVALRVADAEDAFRASVAAGARPAFGPVDLGRGFRLAEVELYGDVVLRYVSYPDGAAGEPFLPGFEGVASPGAADYGLSRFDHIVGNVPELAPAAAYMAGFTGFHEFAEFTTEDVGTTESGLNSMALANNSENVLLPLNEPVHGTKRRSQIQTFLDHHGGPGVQHIALASDDVLRTLREMRARSAMGGFEFLPPPLSDYYDGVRRCAGDVLTEAQINECQELGVMVDRDDQGVLLQIFTKPVGDRPTFFLELIQRIGCMEKDEKGQEYQKGGCGGFGKGNFGQLFKSIEDYEKSLEAKQAAAAATAQGS	2.46 µM	1.24 s⁻¹	0.555 s⁻¹	1.6	1.3	4.58	4.28	1.0	1.3	1.1
0.77	0.17	0.25	0.37	0.47	25.0	0.13	0.22	0.27	211L: single substitution Y211L in SEQ ID NO:2 (protein, Zea mays variant form created by artificial means.) MGPTPTATAAGAAVAAASAAEQAAFRLVGHRNFVRFNPRSDRFQTLAFHHVELWCADAASAAGRFSFALGVPLAARSDLSTGNSAHASLLLRSGSLSLLFTAPYAHGADAATAALPSFSAAAARRFAADHGLAVRAVALRVADAEDAFRASVAAGARPAFGPVDLGRGFRLAEVELYGDVVLRYVSYPDGAAGEPFLPGFEGVASPGAADLGLSRFDHIVGNVPELAPAAAYMAGFTGFHEFAEFTTEDVGTTESGLNSMALANNSENVLLPLNEPVHGTKRRSQIQTFLDHHGGPGVQHIALASDDVLRTLREMRARSAMGGFEFLPPPLSDYYDGVRRCAGDVLTEAQINECQELGVMVDRDDQGVLLQIFTKPVGDRPTFFLEIIQRIGCMEKDEKGQEYQKGGCGGFGKGNFGQLFKSIEDYEKSLEAKQAAAAATAQGS	3.2 µM	1.29 s⁻¹	0.615 s⁻¹	1.1	0.9	4.72	4.41	1.1	0.9	1.1
0.75	0.20	0.29	0.46	0.53	28.5	0.15	0.20	0.29	206S: single substitution P206S in SEQ ID NO:2 (protein, Zea mays variant form created by artificial means.) MGPTPTATAAGAAVAAASAAEQAAFRLVGHRNFVRFNPRSDRFQTLAFHHVELWCADAASAAGRFSFALGVPLAARSDLSTGNSAHASLLLRSGSLSLLFTAPYAHGADAATAALPSFSAAAARRFAADHGLAVRAVALRVADAEDAFRASVAAGARPAFGPVDLGRGFRLAEVELYGDVVLRYVSYPDGAAGEPFLPGFEGVASSGAADYGLSRFDHIVGNVPELAPAAAYMAGFTGFHEFAEFTTEDVGTTESGLNSMALANNSENVLLPLNEPVHGTKRRSQIQTFLDHHGGPGVQHIALASDDVLRTLREMRARSAMGGFEFLPPPLSDYYDGVRRCAGDVLTEAQINECQELGVMVDRDDQGVLLQIFTKPVGDRPTFFLEIIQRIGCMEKDEKGQEYQKGGCGGFGKGNFGQLFKSIEDYEKSLEAKQAAAAATAQGS	3.36 µM	1.13 s⁻¹	0.592 s⁻¹	1.1	0.8	5.15	4.82	1.0	0.9	1.1
0.73	0.15	0.18	0.39	0.47	21.2	0.11	0.15	0.22	434R: single substitution Q434R in SEQ ID NO:2 (protein, Zea mays variant form created by artificial means.) MGPTPTATAAGAAVAAASAAEQAAFRLVGHRNFVRFNPRSDRFQTLAFHHVELWCADAASAAGRFSFALGVPLAARSDLSTGNSAHASLLLRSGSLSLLFTAPYAHGADAATAALPSFSAAAARRFAADHGLAVRAVALRVADAEDAFRASVAAGARPAFGPVDLGRGFRLAEVELYGDVVLRYVSYPDGAAGEPFLPGFEGVASPGAADYGLSRFDHIVGNVPELAPAAAYMAGFTGFHEFAEFTTEDVGTTESGLNSMALANNSENVLLPLNEPVHGTKRRSQIQTFLDHHGGPGVQHIALASDDVLRTLREMRARSAMGGFEFLPPPLSDYYDGVRRCAGDVLTEAQINECQELGVMVDRDDQGVLLQIFTKPVGDRPTFFLEIIQRIGCMEKDEKGQEYQKGGCGGFGKGNFGQLFKSIEDYEKSLEAKRAAAAATAQGS	2.74 µM	1.35 s⁻¹	0.868 s⁻¹	1.1	1.1	5.63	5.26	1.1	1.1	1.1
